Data as given in paper PMC5037330, “Large-Scale Movements of IF3 and tRNA during Bacterial Translation Initiation” (Cell, 2016).

Target: T1, IF3 Thermus thermophilus (Thermus thermophilus, UniProt Q5SKU2 1-171)
T1 construct: Translation initiation factor IF3 of Thermus thermophilus; residues 3 to 170 were modelled (N-terminal domain, helical linker, C-terminal domain); also called initiation factor 3; NTD; source: E. coli BL21(DE3), purified (same protocol as IF1: 65°C heat step, ion exchange, hydroxylapatite)
T1 sequence: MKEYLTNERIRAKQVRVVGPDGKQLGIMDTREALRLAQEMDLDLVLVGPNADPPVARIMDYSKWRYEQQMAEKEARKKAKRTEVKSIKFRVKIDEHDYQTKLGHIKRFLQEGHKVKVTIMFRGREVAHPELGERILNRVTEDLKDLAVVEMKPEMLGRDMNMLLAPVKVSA
Experiment: cryo-EM structure; Sample 1 (without IF2): T. thermophilus 30S, IF1, IF3, mRNA and fMet-tRNA mixed 1:4:4:3:3, complex at 120 nM, 5 mM HEPES pH 7.5, 10 mM MgAc, 50 mM KCl, 10 mM NH4Cl, 6 mM 2-mercaptoethanol; put on grids without further purification; classes PIC-1A to PIC-4
Settings: both partners purified

binding result: binds
B1: IF1 Thermus thermophilus (natural protein)
chain: MAKEKDTIRTEGVVTEALPNATFRVKLDSGPEILAYISGKMRMHYIRILPGDRVVVEITPYDPTRGRIVYRK
notes: Translation initiation factor IF1 of Thermus thermophilus, expressed as in Carter et al., 2001; also called initiation factor 1; source: E. coli BL21(DE3), purified (65°C heat step, ion exchange, hydroxylapatite)
